Experimental data taken from patent US20240294624A1, “ANTI-ERYTHROPOIETIN ANTIBODY” (ANDREMACON S.R.L., priority 2021, published 2024).

Experiments:
[1] = tested on: primary anaplastic astrocytoma cells; experiment: MTT cell viability assay; assay type: cell-based, human; details: 96 hours, anti-EPO (C4) 6 μg/ml, TMZ 100 μM, FTY720 100 nM
Source text: D. Primary anaplastic astrocytoma cancer stem cells isolated from tumor biopsy of a cohort of patients affected by high grade glioma, in particular, anaplastic astrocytoma (WHO, grade III);

[2] = Plasma pharmacokinetics by SPR after single i.v. injection; assay type: in vivo; details: mice with glioblastoma xenograft, single i.v. 10 mg/kg
Method: The ligands hEPO and BSA (Sigma-Aldrich, Italy, used as reference) were immobilized using amine-coupling chemistry on parallel channels of a CMD700L (Xantec GmbH) sensor chip. Briefly, surface was activated with sulfo NHS/EDC according to manufacturer's recommendation; hEPO and BSA were diluted at a concentration of 400 and 30 μg/mL in acetate buffer, pH 4.0 and 4.5, respectively. These solutions were flowed for 5 min at a rate of 30 μL/min over the activated chip surface. The remaining activated groups were blocked with ethanolamine, pH 8.0.
The analyte solutions (e.g. control plasma containing spiked anti-EPO (C4) antibody, or plasma/tissue samples from treated mice) were injected so that they flowed simultaneously on both immobilized hEPO and the reference surface. Dissociation was measured in the following 10 minutes. All of these assays were carried out at 25° C. […]
This method can thus allow to determine the plasma and tissue concentrations of antibody, on the basis of an appropriate calibration curve (FIG. 26A). The Lower Limit of Detection calculated was ˜0.5 μg/mL (˜3.3 nM), which corresponding to a LLD of 5 μg/mL in undiluted plasma.
The pharmacokinetic (PK) profile of anti-EPO (C4) was assessed after single i.v. injection in mice models for glioblastoma. In particular, the antibody concentrations were measured at different time points after treatment (from 6 hours to 1 week) in: […]

HOC84 stem cells = experiment: Gene expression by RealTime PCR; assay type: cell-based, human; details: 72 h
Method: The analysis was performed by the assessment of gene expression by RealTime PCR on genes related to apoptosis (FIG. 23A), proliferation (FIG. 23B), angiogenesis (FIG. 23C), and inflammation (FIG. 23D). HOC84 stem cells (2×10^5) were seeded into 25 cm2 collagen-coated culture flasks. […] At the end, total RNA was extracted following TRI-Reagent protocol and quantified with NanoDrop 1000 Spectro-photometer (Thermo Fisher Scientific). Reverse transcriptase reaction was executed using TranScriba Kit (A&A Biotechnology), loading 1 μg of RNA (A260/A280>1.8), according to manufacturer's instructions. qRT-PCR was performed using StepOnePlus™ (Thermo Fisher Scientific), 1 μg of cDNA, forward and reverse primers (250 nM each) Titan HotTaq EvaGreen® qPCR Mix (Bioatlas). Data were normalized to 18S expression, used as endogenous control. Relative gene expression was determined using the 2−ΔΔCt method (FIG. 23).

[3] = Hematological toxicity, blood count; assay type: in vivo; details: mice; IV 10 mg/Kg; 18 days
Method: Blood samples (100 μL) were collected into K3EDTA coated tubes, which were placed on a rotary mixer for at least 30 min, then analyzed for hematological analysis.
FIGS. 27 and 28 refer to blood count of mice treated intravenously (IV) for 18 days (T18) with anti-EPO at 10 mg/Kg. (A) RBC: red blood cells; (B) HGB: hemoglobin; (C) HCT: hematocrit; (D) MCV: mean corpuscular volume; (E) MCH: mean corpuscular hemoglobin; (F) MCHC: mean corpuscular hemoglobin concentration; (G) RDW: red cell distribution width; (H) RET: reticulocyte Count; (I) PLT: platelets. Data are means±SD (FIG. 27) and A) WBC: white blood cells; (B) NEUT: neutrophils; (C) LYMP: lymphocytes; (D) MONO: monocytes; (E) EOS: eosinophils; (F) BASO: basophils. Data are means±SD (FIG. 28).

U373 cells = experiment: MTT viability of chemo-resistant cells; assay type: cell-based; details: 96 h
DLD1 = experiment: MTT cell viability assay; assay type: cell-based, human; details: 96 hours, 6 μg/ml
Method: Cell viability was assessed by 3-(4,5-Dimethylthiazol-2-yl)-2,5-Diphenyl-tetrazoliumBromide (MTT) assay, as a function of redox potential (FIGS. 2-7). Cells (5×10^3/well) were seeded and cultured in 96-well plate for 24 h in Basal Medium (BM). Then, culture media were replaced with fresh media containing the specific treatments, or in BM as a control condition (CTR).
Test was performed in triplicate after 96 h of treatment, by replacing culture media with 100 μL of fresh media added with 10 μL of MTT 5 mg/ml in D-PBS. After 4 h of incubation, media were removed and cells were lysed with 100 μL of 2-propanol/formic acid (95:5, by vol) for 10 min. Then, absorbance was read at 570 nm in microplate reader.

murine EPO (mEPO) = target: T1, murine EPO (mEPO) (Mus musculus, UniProt P07321); experiment: SPR binding kinetics; details: m-EPO
T1 sequence (P07321 27-192): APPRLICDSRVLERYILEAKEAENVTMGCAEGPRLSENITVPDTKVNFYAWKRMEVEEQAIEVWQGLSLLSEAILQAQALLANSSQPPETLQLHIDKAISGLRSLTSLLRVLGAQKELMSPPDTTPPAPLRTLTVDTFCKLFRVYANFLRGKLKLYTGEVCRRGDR
Method: FIG. 26A SPR technology can allow to determine the plasma and tissue concentrations of antibody, on the basis of an appropriate calibration curve. FIG. 26B Blood samples were collected from the retroorbital plexus under isoflurane anesthesia at 4, 24, 48, 72, 120, and 168 h from treatment.
SPR is a technology widely used to study in real time the interaction between two unlabeled molecules, one (the “ligand”) immobilized on a sensor chip, and the other (the “analyte”) flowing through a microfluidic system over the chip surface. Binding is measured in real time as a change in the refractive index on the surface. The most common application of SPR is to determine the association/dissociation binding constants for biomolecular interactions, but its versatility allows many other uses, including label-free immunoassays and concentration determination of biologics.
The study was carried out using an up-to-date SPR apparatus, the ProteOn XPR36 Protein Interaction Array system (Bio-Rad Laboratories). This system is mainly characterized by the presence of six flow channels which can uniformly immobilize up to six ligands on parallel strips of the same sensor surface.
In addition, SPR analysis was performed for anti-EPO (C4) to evaluate the binding kinetics parameters.

B1: anti-EPO (C4): isolated anti-Erythropoietin monoclonal antibody, VL SEQ ID NO:6, VH SEQ ID NO:14, hybridoma DSM ACC 3370 (antibody, listed as Homo sapiens, V domains shown)
VH: EVKLQESGGGLVQPGGSLKLSCAASGFTFSTYTMSWVRQTPEKRLEWVAYISNGGDRTYYPDTVKGRFTISRDDAKNTLFLQMSSLKSEDTAMYYCARHNITTVPFTMDYWGQGTSVTVSS
VL: DIVLTQSPASLAVSLGQRATISCRASESVDYYGTGLMQWYQQRPGQPPKLLIYGASNVGSGVPARFSGSGSGTDFSLNIHPVEGDDIAMYFCQQTRKVPSTFGGGTKLEIK
modifications: VH amino acid sequence; VL amino acid sequence
cells initially seeded dead [1]: ~66% | half-time of elimination [2]: about 4.4 days | expression of genes related to angiogenesis (HOC84 stem cells): significantly inhibits proliferation and angiogenesis | expression of genes related to apoptosis (HOC84 stem cells): increases apotosis and inflammation | expression of genes related to inflammation (HOC84 stem cells): higher expressed | blood count (hematological parameters) [3]: no significant variations in all hematological parameters analyzed | percent survival (U373 cells): 30% | cells initially plated dead (DLD1): 73% | kd (murine EPO (mEPO)): 0.000669 s⁻¹ | Kd (murine EPO (mEPO); rounded): 1000 nM
